Assays:
[1] = Solubility of expressed lysins and chimeras; conditions: qualitative
Method: In another embodiment, the lysin is a chimeric protein that comprises an endopeptidase domain of the S. aureus Twort lysin upstream of the phiNM3 CWT domain (SEQ ID NO:1). The chimeric polypeptide is preferably sufficiently soluble in phosphate buffered saline (PBS). Preferred levels of solubility in PBS for the chimeric lysins is at least about 1 mg/ml and more preferably at least about 3 mg/mL. in PBS. […] One example of such a lysin is provided in SEQ ID NO:2 (AD127), shown in FIG. 5A and consisting of the Twort lysin endopeptidase domain attached to the phiNM3 CWT domain (SEQ ID NO:1). The isolated polypeptide of SEQ ID NO:2 (AD 127) was constructed by engineering S. epidermidis autolysin amidase and Twort lysin endopeptidase domains upstream of phiNM3 CWT domain, respectively.
Traditionally, Bacillus-specific lysins are expressed at high levels and are soluble in E. coli. Therefore, our first attempt was to engineer a 16-amino acid peptide (4) that is conserved in several S. aureus-specific lysins (Lu J Z, Fujiwara T, Komatsuzawa H, Sugai M, Sakon J. 2006. Cell wall-targeting domain of glycylglycine endopeptidase distinguishes among peptidoglycan cross-bridges. (Lue et al. (2006) J. Biol. Chem. 281(1):549-58) The catalytic domain of the Bacillus-specific lysin PlyB was used to generate chimera AD 103 (FIG. 4) (SEQ ID NO: 13). The chimeras were tested for expression, solubility and activity. Then the entire C-terminal CWT domain of PlyB (6) was replaced by the putative C-terminal domain of S. aureus phage Twort lysin (8) to obtain AD 105 (SEQ ID NO: 14). […] Since the lysostaphin catalytic domain […] (10) in AD 112 was of bacterial origin, we attempted to engineer a phage-derived catalytic domain upstream of the lysostaphin CWT. For this, the endopeptidase domain in Twort lysin (14) was used to construct chimera AD 119 (SEQ ID NO:3).

S. epidermidis = test: Binding of FITC-labeled phiNM3 CWT to bacterial cells, fluorescence microscopy; conditions: FITC-labeled protein 50 μg, 10 minutes
From the text: (§1) Most preferably, the binding molecule is a soluble binding domain of a bacterial lysin comprising a polypeptide including an amino acid sequence providing specific binding to S. aureus, such as SEQ ID NO:1 (phiNM3 CWT domain). For example, the lysin preferably includes the polypeptide sequence of S. aureus phage phiNM3 lysin (SEQ ID NO:1) (protein accession number YP_908849). The phiNM3 lysin CWT domain (SEQ ID NO:1) corresponding to amino acid residues 158-251 was cloned and expressed. […] FIG. 2A is […] showing the protein of SEQ ID NO:1 in a second column next to a set of marker proteins in a first column. […] Group A streptococci, E. coli and Bacillus cereus were used as controls.
(§2) Fluorescent labeling and binding analyses were performed on phiNM3 CWT. S. aureus strain 8325-4 genomic DNA was used to amplify the putative CWT of phiNM3 lysin using primers NM3-FWD […]-3′ (SEQ ID NO:10) and NM3-REV 5′-[…]-3′(SEQ ID NO:11). The resulting amplicon was cloned into the arabinose-inducible expression vector pBAD24. Positive clones containing the insert were confirmed by sequencing. The approximately 10-kDa phiNM3 CWT protein was expressed and the protein was purified in one step by cation-exchange chromatography. The purified protein (1 mg/ml) was incubated with 10 μl of FITC (1 mg/ml) for 1 hour. Excess FITC was removed on a desalting column. The labeled-protein (50 μg) was incubated with bacterial cells for 10 minutes, washed 3× with phosphate-buffered saline (pH 7.4) and observed under fluorescence microscope.

Bacillus cereus = test: as above; conditions: FITC-labeled protein 50 μg, 10 minutes
From the text: as §1, §2

E. coli = test: as above; conditions: FITC-labeled protein 50 μg, 10 minutes
From the text: as §1, §2

Group A streptococci = test: as above; conditions: FITC-labeled protein 50 μg, 10 minutes
From the text: as §1, §2

S. aureus = test: as above; set-up: species or system Staphylococcus aureus; conditions: FITC-labeled protein 50 μg, 10 minutes; single or mixed populations
From the text: as §1
Fluorescent labeling and binding analyses were performed on phiNM3 CWT. S. aureus strain 8325-4 genomic DNA was used to amplify the putative CWT of phiNM3 lysin using primers NM3-FWD […]-3′ (SEQ ID NO:10) and NM3-REV 5′-[…]-3′(SEQ ID NO:11). The resulting amplicon was cloned into the arabinose-inducible expression vector pBAD24. Positive clones containing the insert were confirmed by sequencing. […] The labeled-protein (50 μg) was incubated with bacterial cells for 10 minutes, washed 3× with phosphate-buffered saline (pH 7.4) and observed under fluorescence microscope.

B1: phiNM3 CWT domain: cell wall targeting domain, amino acid residues 158-251 of S. aureus phage phiNM3 lysin, approximately 10-kDa; tested FITC-labeled (protein)
chain: GKSASKITVGSKAPYNLKWSKGAYFNAKIDGLGATSATRYGDNRTNYRFDVGQAVYAPGTLIYVFEIIDGWCRIYWNNHNEWIWHERLIVKEVF
modifications: FITC label; Staphylococcus aureus phage phiNM3
notes: cell wall targeting domain, amino acid residues 158-251 of S. aureus phage phiNM3 lysin, approximately 10-kDa; tested FITC-labeled
- solubility of the expressed protein [1]: highly soluble
- binding to S. epidermidis cells (S. epidermidis): bound specifically
- binding to Bacillus (Bacillus cereus): not observed
- binding to E. coli (E. coli): not observed
- binding to streptococci (Group A streptococci): not observed
- binding to S. aureus cells (S. aureus): bound specifically

— patent US11827911B2, “Chimeric bacteriophage lysin with activity against Staphylococci bacteria” (priority 2008, dated 2023)
